Data taken from patent publication US20120283421A1 (published 2012).

Biological target: T1, nine-person peanut-specific IgE antibody pool
T1 construct: polyclonal human serum IgE; also called pooled serum; peanut-positive serum pool
Test: competitive ELISA inhibition, pooled serum IgE on coated crude peanut

IC50: 5.5 ng/mL
B1: Ara h 1 (purified from peanut) (other)
chain: KSSPYQKKTENPCAQRCLQSCQQEPDDLKQKACESRCTKLEYDPRCVYDPRGHTGTTNQRSPPGERTRGRQPGDYDDDRRQPRREEGGRWGPAGPREREREEDWRQPREDWRRPSHQQPRKIRPEGREGEQEWGTPGSHVREETSRNNPFYFPSRRFSTRYGNQNGRIRVLQRFDQRSRQFQNLQNHRIVQIEAKPNTLVLPKHADADNILVIQQGQATVTVANGNNRKSFNLDEGHALRIPSGFISYILNRHDNQNLRVAKISMPVNTPGQFEDFFPASSRDQSSYLQGFSRNTLEAAFNAEFNEIRRVLLEENAGGEQEERGQRRWSTRSSENNEGVIVKVSKEHVEELTKHAKSVSKKGSEEEGDITNPINLREGEPDLSNNFGKLFEVKPDKKNPQLQDLDMMLTCVEIKEGALMLPHFNSKAMVIVVVNKGTGNLELVAVRKEQQQRGRREEEEDEDEEEEGSNREVRRYTARLKEGDVFIMPAAHPVAINASSELHLLGFGINAENNHRIFLAGDKDNVIDQIEKQAKDLAFPGSGEQVEKLIKNQKESHFVSARPQSQSQSPSSPEKESPEKEDQEEENQGGKGPLLSILKAFN
modifications: glycoprotein (PAS positive); fluorescein-labelled tracer in Example 6
notes: Native allergen from peanut extract; Forms trimers and hexamers
